According to publication PMC10784468 (Nature Communications, 2024):

Tests used:
EJ xenograft tumor = assay: Penetration assay in tumor frozen sections (Cy labeled); settings: mouse, in vivo, iv, 8 mg/kg
Experimental: Firstly, EJ xenograft mice were administrated with Cy labeled Gi-F (8 mg/kg in 100 μL PBS) and Cy labeled Gi-F-CAA (8 mg/kg in 100 μL PBS) by intravenous injection. Afterward, EJ tumor tissues were entirely resected and protected from light. Subsequently, the tumor tissues were fixed with optimum cutting temperature (OCT) compound for 12 h at −20 °C avoiding light. Finally, the fixed tumor tissues were cut into sections and immediately observed with UltraVIEW VoX.

ζ-potential in PBS = format: physicochemical; settings: 40 μM in PBS, pH 7.4; mean of n = 3
Experimental: Supplementary Fig. 12. ζ-potential change of Gi-F-CAA (40 μM) in PBS (0.01 M, pH 7.4 or 6.5) (n=3
experimental repeats). Experiment was independently repeated three times with similar results. Values are
(1 picture or pasted object on this page, not shown here)
Supplementary Fig. 13. ζ-potential of NGi-F-CAA, Gi-F and Gi-F-SA (pH 7.4) (40 μM) in PBS (n=3

GPX4 = biological target: T1, GPX4 (Homo sapiens, UniProt P36969); assay: Tumor GPX4 activity detection; format: in vivo, BALB/c nude mice; parameters: from tissue; host or cells: EJ xenograft tumour tissue from BALB/c nude mice
T1 sequence (P36969 1-197): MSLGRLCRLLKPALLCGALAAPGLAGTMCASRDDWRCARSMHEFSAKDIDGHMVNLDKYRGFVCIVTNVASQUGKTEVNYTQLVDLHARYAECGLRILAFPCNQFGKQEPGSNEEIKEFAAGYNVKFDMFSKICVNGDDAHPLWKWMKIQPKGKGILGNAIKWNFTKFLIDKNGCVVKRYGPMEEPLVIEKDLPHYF
Experimental: (§1) EJ tumor tissues were collected under euthanasia at the end of treatment and washed with PBS for 3 times. Afterwards, the tumor lysates were collected by centrifugation at 5000 rpm for 10 min at 4 °C after lysed by freeze-thaw treatment. Finally, the GPX4 activity were measured with a GPX Assay Kit based on the manufacturer’s instructions.

EJ tumor tissues [1] = assay: Tumor GSH content detection; format: in vivo, BALB/c nude mice; settings: tumor
Experimental: as §1, with “8000” for “5000”, “with Frozen Type Tissuelyser.” for “by freeze-thaw treatment.”, “GSH contents” for “GPX4 activity”, “GSH” for “GPX”

EJ cells = assay: Cytotoxicity assay (CCK-8) on EJ cells; settings: pH 7.4
Experimental: Initially, EJ cells were seeded into 96 well plates at a density of 5 × 10^3 per well and incubated in a CO2 incubator overnight at 37 °C. Subsequently, Gi-F (pH = 7.4), Gi-F-SA (pH = 7.4), NGi-F-CAA (pH = 7.4), NGi-F-CAA (pH = 6.5), Gi-F-CAA (pH = 7.4) and Gi-F-CAA (pH = 6.5) at different concentrations (1, 2, 4, 8, 16, 32, 64, 128 and 256 μM) was added to the cells and further incubated for 48 h. Finally, the cell viability rate was calculated by (Sample wells-Blank wells)/(Control wells-Blank wells) × 100%.

EJ tumor tissues [2] = assay: Tumor MDA content detection; format: in vivo, BALB/c nude mice; settings: tumor
Experimental: EJ tumor tissues were collected under euthanasia at the end of treatment and washed with PBS for 3 times. Afterwards, the tumor lysates were collected by centrifugation at 8000 g for 10 min at 4 °C after lysed with Frozen Type Tissuelyser. Finally, the MDA contents were measured by thiobarbituric acid (TBA) reaction with a Malondialdehyde (MDA) Assay Kit (Solarbio Science & Technology Co., Ltd., China, BC0025) based on the manufacturer’s instructions.

EJ xenograft tumors = assay: In vivo antitumor evaluation in EJ xenograft model (tumor volume, tumor weight, body weight); settings: 8 mg/kg i.v.; for Tumor weight: six injections, 18 days
Experimental: Female BALB/c nude mice (~8 weeks, 18 g) were subcutaneously inoculated with 5 × 10^6 EJ cells resuspended in Matrigel. When the tumor size reached about 100 mm^3, EJ tumor-bearing mice were randomly divided into four groups and administrated with PBS, Gi-F (8 mg/kg in 100 μL PBS), Gi-F-SA (8 mg/kg in 100 μL PBS) and Gi-F-CAA (8 mg/kg in 100 μL PBS) by intravenous injection at 2-days intervals for six times. Individual tumor volume and bodyweight of mouse after different treatment was collected at 2-days intervals for analysis. Mice were killed at 18 days post treatment unless endpoints were exceeded. Moreover, tumors from all groups were harvested under euthanasia and weighed for analysis at the end of treatment.

[3] = Hydrolysis of the peptide-porphyrin conjugates at pH 7.4 and 6.5 (dialysis, HPLC); format: physicochemical; settings: for Hydrolysis of SA (%): mean
Experimental: In vitro hydrolysis analysis of the peptide-porphyrin conjugates was studied in pH values of 7.4 and 6.5 solutions. 20 mg of peptide-porphyrin conjugate was dissolved in 2 mL pH 7.4 buffer solution, which was then transferred into a dialysis bag (MWCO: 1000 Da) and immersed in 25 mL of different pH buffer solutions at 37 °C with continuous shaking respectively. At fixed time intervals (20 min, 40 min, 1 h, 2 h and 4 h), […] chromatography (HPLC, WATERS Alliance HPLC e2489), and an equal volume of fresh buffer solution was replaced to the system. In order to determine the CAA concentration according to the peak area of the CAA, a standard curve of the CAA was plotted, with the peak area as a function of the concentration. […]

In the case of “FeTCPP-LKLKLK(SA)GACNWLPLYPCPV (disulfide) [Gi-F-SA, control conjugate decorated with non-sensitive succinic anhydride (SA) moieties]”, the “tumor penetration, fluorescence distribution in tumor sections” value (EJ xenograft tumor) is reported as “penetrate into the tumor interior, while in a week fluorescence intensity”, the “Zeta potential (mV)” value (ζ-potential in PBS) is reported as -21.4 mV and the “Relative activity of GPX4” value (GPX4; mice 1) is reported as 0.79. For the same substance, the “Relative activity of GPX4” value (GPX4; mice 2) was 0.8, the “Relative activity of GPX4” value (GPX4; mice 3) was 0.76 and the “Relative activity of GPX4” value (GPX4; mice 4) was 0.79. The “Relative activity of GPX4” value (GPX4; mice 5) was 0.8, the “Relative activity of GPX4” value (GPX4; mice 6) was 0.76 and the “Relative content of GSH” value (EJ tumor tissues [1]; mice 1) was 0.8. For the same substance, the “Relative content of GSH” value (EJ tumor tissues [1]; mice 2) was 0.832, the “Relative content of GSH” value (EJ tumor tissues [1]; mice 3) was 0.874 and the “Relative content of GSH” value (EJ tumor tissues [1]; mice 4) was 0.837. The “Relative content of GSH” value (EJ tumor tissues [1]; mice 5) was 0.887, the “Relative content of GSH” value (EJ tumor tissues [1]; mice 6) was 0.74 and the IC50 (EJ cells) was 40 µM. The “Relative content of MDA” value (EJ tumor tissues [2]; mice 1) was 1.35, the “Relative content of MDA” value (EJ tumor tissues [2]; mice 2) was 1.45 and the “Relative content of MDA” value (EJ tumor tissues [2]; mice 3) was 1.2. The “Relative content of MDA” value (EJ tumor tissues [2]; mice 4) was 1.75, the “Relative content of MDA” value (EJ tumor tissues [2]; mice 5) was 1.45 and the “Relative content of MDA” value (EJ tumor tissues [2]; mice 6) was 1.3. The “mean tumor volume at 18 days post injection” value (EJ xenograft tumors; six injections at 2-days intervals, n = 6) was 1204 mm^3, the “Tumor weight” value (EJ xenograft tumors; mice 1) was 1.819 g and the “Tumor weight” value (EJ xenograft tumors; mice 2) was 1.454 g. The “Tumor weight” value (EJ xenograft tumors; mice 3) was 1.391 g, the “Tumor weight” value (EJ xenograft tumors; mice 4) was 1.595 g and the “Tumor weight” value (EJ xenograft tumors; mice 5) was 1.425 g. For the same substance, the “Tumor weight” value (EJ xenograft tumors; mice 6) was 1.689 g, the “Hydrolysis of SA (%)” value ([3]; pH 6.5, 0 min) was 0% and the “Hydrolysis of SA (%)” value ([3]; pH 6.5, 20 min) was 1.1%. For the same substance, the “Hydrolysis of SA (%)” value ([3]; pH 6.5, 40 min) was 1.9%, the “Hydrolysis of SA (%)” value ([3]; pH 6.5, 60 min) was 2.1% and the “Hydrolysis of SA (%)” value ([3]; pH 6.5, 120 min) was 2.1%. The “Hydrolysis of SA (%)” value ([3]; pH 6.5, 240 min) was 2.3%, the “hydrolysis at pH 6.5 and 7.4” value ([3]; pH 6.5 and 7.4, HPLC, Supplementary Fig. 11) was “little hydrolysis” and the “Hydrolysis of SA (%)” value ([3]; pH 7.4, 0 min) was 0%. For the same substance, the “Hydrolysis of SA (%)” value ([3]; pH 7.4, 20 min) was 1%, the “Hydrolysis of SA (%)” value ([3]; pH 7.4, 40 min) was 1.2% and the “Hydrolysis of SA (%)” value ([3]; pH 7.4, 60 min) was 1.6%. The “Hydrolysis of SA (%)” value ([3]; pH 7.4, 120 min) was 1.9% and the “Hydrolysis of SA (%)” value ([3]; pH 7.4, 240 min) was 2.4%.
